Assay results reported in patent publication US9845340B2, “Peptides that specifically bind HGF receptor (cMet) and uses thereof” (Dyax Corp., priority 2003, dated 2017).

Key:
[1] = biological target: T1, cMet-Fc fusion protein (Homo sapiens, UniProt P08581); assay: Protein phage ELISA: peptide-displaying phage binding to soluble cMet-Fc versus TRAIL-Fc; settings: phage isolate; cMet-Fc vs. TRAIL-Fc
Procedure, shortened: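 Plates coated with 0.5 μg/mL cMet-Fc or, as background, TRAIL-Fc, then blocked with 3% BSA in PBST. Peptide-displaying phage bound 2 h at room temperature. Detection with HRP-anti-M13 antibody.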

[2] = biological target: T2, 3T3 cells that over-express human cMet (Homo sapiens, UniProt P08581); assay: Whole cell ELISA of peptide-displaying phage; assay type: cell-based; settings: phage isolate; 3T3 cells expressing human cMet vs. non-expressing 3T3 cells
T2 construct: expressed in transfected cells; host or cells: 3T3 cells
T2 sequence (P08581 25-1390): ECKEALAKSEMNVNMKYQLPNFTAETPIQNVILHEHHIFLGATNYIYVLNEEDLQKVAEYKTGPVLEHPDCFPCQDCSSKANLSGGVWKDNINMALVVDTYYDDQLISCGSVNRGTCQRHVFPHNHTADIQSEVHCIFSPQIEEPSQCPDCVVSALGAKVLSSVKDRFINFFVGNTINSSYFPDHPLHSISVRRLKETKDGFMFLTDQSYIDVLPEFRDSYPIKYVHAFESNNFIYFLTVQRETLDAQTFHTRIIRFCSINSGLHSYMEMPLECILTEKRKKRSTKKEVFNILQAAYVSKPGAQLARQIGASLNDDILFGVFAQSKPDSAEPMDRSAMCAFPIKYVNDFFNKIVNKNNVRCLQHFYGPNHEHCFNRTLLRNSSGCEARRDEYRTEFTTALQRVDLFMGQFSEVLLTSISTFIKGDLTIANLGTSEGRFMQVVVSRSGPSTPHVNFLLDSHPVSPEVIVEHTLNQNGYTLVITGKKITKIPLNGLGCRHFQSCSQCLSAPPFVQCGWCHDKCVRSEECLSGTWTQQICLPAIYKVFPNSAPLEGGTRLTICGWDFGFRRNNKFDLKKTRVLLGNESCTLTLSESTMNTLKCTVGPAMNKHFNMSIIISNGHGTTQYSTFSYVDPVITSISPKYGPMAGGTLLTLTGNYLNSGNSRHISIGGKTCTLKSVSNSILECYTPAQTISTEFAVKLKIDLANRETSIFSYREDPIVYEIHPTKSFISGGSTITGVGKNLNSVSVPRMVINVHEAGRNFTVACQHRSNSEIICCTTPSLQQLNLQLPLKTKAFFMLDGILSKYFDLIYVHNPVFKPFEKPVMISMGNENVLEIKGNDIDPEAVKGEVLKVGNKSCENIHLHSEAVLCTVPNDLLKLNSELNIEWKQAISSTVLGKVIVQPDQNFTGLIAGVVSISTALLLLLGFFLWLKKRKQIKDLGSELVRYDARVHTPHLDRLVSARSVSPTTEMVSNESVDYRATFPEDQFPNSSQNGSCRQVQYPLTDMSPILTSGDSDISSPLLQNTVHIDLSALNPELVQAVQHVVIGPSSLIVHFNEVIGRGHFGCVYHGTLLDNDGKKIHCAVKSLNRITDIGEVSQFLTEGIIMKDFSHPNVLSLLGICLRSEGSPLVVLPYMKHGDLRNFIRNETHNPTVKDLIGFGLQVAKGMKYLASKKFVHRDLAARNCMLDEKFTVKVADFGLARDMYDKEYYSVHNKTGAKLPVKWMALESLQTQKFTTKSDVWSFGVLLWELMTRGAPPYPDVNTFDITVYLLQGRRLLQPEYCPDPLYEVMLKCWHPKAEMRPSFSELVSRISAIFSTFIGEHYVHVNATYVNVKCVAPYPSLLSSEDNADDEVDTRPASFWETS
Procedure, shortened: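 3T3 cells over-expressing human cMet seeded 10^5/well, pelleted and fixed with 0.1% glutaraldehyde 12 min at 37 °C. Blocked peptide-displaying phage bound 1 h at room temperature; after PBST wash, bound phage detected with HRP-conjugated anti-M13 antibody.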

[3] = biological target: T1, cMet-Fc fusion protein; assay: HGF competition protein ELISA; settings: % of binding in the absence of HGF
Procedure: This competition ELISA identifies peptides that serve as “HGF antagonistic peptides”, peptides that block HGF-mediated signaling events (e.g., proliferation). These assays were conducted using the peptide-displaying phage discovered from the initial selection and screening campaigns using the first generation peptide libraries. Briefly, 96-well plates were coated overnight at 4 C with 0.5 μg/mL of cMet-Fc fusion protein or TRAIL-Fc fusion protein (background). The plates were blocked for 2 hours at 37 C with 3% BSA in PBST. The plates were washed with PBST, and 100 μL of HGF (either at 100 ng/mL or 500 ng/mL in PBST) was added to each well. The plates were incubated for 30 minutes at room temperature after which the plates were washed with PBST and 70 μL of HGF (143 ng/mL or 714 ng/mL) or 70 μL of PBST was added to the respective wells. This was followed by an addition of 30 μL of peptide-displaying phage overnight culture to each well. The plates were incubated for 2 hours at room temperature, washed with PBST and cMet-binding peptide-displaying phage was detected using an HRP-conjugated anti-M13 antibody.

T1 sequence (P08581 25-307 limits assumed): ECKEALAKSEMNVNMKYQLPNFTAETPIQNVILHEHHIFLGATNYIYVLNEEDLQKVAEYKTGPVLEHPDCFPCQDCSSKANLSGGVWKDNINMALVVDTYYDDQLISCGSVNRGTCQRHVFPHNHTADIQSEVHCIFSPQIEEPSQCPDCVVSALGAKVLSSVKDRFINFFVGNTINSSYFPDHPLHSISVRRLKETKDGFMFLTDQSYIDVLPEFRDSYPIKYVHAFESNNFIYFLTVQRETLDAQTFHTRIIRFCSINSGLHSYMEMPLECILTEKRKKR
T1 sequence (P08581 with tags, fused parts or gaps limits assumed): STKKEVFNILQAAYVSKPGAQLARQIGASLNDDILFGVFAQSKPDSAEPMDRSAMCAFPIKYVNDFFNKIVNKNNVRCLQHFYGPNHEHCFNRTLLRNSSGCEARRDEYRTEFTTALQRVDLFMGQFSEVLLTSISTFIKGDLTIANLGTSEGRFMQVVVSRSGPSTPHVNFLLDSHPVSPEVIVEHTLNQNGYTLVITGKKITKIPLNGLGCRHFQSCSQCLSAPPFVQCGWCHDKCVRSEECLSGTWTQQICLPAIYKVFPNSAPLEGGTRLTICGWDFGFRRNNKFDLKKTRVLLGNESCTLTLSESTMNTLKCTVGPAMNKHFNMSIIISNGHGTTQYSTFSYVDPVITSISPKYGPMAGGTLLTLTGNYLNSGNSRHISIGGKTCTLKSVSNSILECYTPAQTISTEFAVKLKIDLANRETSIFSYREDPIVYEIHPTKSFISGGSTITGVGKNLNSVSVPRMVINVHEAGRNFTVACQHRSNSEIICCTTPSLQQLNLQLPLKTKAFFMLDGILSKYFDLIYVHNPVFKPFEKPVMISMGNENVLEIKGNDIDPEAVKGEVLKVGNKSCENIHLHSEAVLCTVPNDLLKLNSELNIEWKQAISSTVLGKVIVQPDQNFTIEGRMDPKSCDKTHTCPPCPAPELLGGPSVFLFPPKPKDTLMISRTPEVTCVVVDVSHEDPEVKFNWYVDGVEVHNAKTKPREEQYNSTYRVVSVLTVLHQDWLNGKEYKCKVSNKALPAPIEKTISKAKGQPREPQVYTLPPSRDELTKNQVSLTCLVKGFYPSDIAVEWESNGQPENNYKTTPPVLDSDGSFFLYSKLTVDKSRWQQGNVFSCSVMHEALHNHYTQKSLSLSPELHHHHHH

Sequence	Protein ELISA [1] [fold over background]	WC ELISA [2] [fold over background]	HGF 100 ng/mL [3]	HGF 500 ng/mL ([3]; HGF 500 ng/mL) [%]
AGWYNCSGENFWNCKWIGT (Synthetically generated cMet-binding peptide sequence) [SEQ ID NO: 082]	14.3	1.43	61%	79
GSILYCINRNDPQCPYTAP (Synthetically generated cMet-binding peptide sequence) [SEQ ID NO: 101]	3.0	1.27	9S%	
GSSHLCNPEFCHFTAP (Synthetically generated cMet-binding peptide sequence) [SEQ ID NO: 003]	3.2	1.30		
GSSTICPGTACVDHAP (Synthetically generated cMet-binding peptide sequence) [SEQ ID NO: 008]	3.2	1.27		
GSTKVCHEKWNQLFCHNQAP (Synthetically generated cMet-binding peptide sequence) [SEQ ID NO: 368]	7.0	1.27		
GSYYDCREFQCNKPAP (Synthetically generated cMet-binding peptide sequence) [SEQ ID NO: 002]	4.4	1.33		

More lines, now with the values ahead:

Protein ELISA [1] [fold over background]	WC ELISA [2] [fold over background]	HGF 100 ng/mL [3]	HGF 500 ng/mL ([3]; HGF 500 ng/mL) [%]	Sequence
6.4	1.23			GSQNNCEYGSRGSSFCLAMAP (Synthetically generated cMet-binding peptide sequence) [SEQ ID NO: 377]
3.4	1.40			GSQQICDRKEYRFQACLSDAP (Synthetically generated cMet-binding peptide sequence) [SEQ ID NO: 371]
3.0	1.30			GSRFHCWQGDLMQTYCMPMAP (Synthetically generated cMet-binding peptide sequence) [SEQ ID NO: 376]
4.3	1.33			GSSARCDELINDFHSCLVMAP (Synthetically generated cMet-binding peptide sequence) [SEQ ID NO: 375]
3.3	1.37			GSSHCNQMITPWQNCGMRAP (Synthetically generated cMet-binding peptide sequence) [SEQ ID NO: 374]
4.0	1.30			GSSQICAVYLDDTHNCERHAP (Synthetically generated cMet-binding peptide sequence) [SEQ ID NO: 373]
4.6	1.37			GSTMSCWRWGRDAYSCNQMAP (Synthetically generated cMet-binding peptide sequence) [SEQ ID NO: 372]
